The source of these data is patent publication US20220363758A1 (SORRENTO THERAPEUTICS, published 2022).

In experiment [1] the target is T1, Recombinant human CD38-his tag (human, UniProt P28907 43-300).
T1 construct: also called recombinant CD38 antigen; CD38 antigen; not shown: his tag
In words: SPR (Biacore T200), 1:1 binding model; antigen not named on the sheet, taken as recombinant human CD38-his from Example 9. (In general: In SPR one partner is held on a chip, and binding of the other changes the refractive index at the surface.)

For experiment [2], the target named is T1, Recombinant human CD38-his tag. The experiment in a line: SPR (Biacore T200), 1:1 binding model; antigen not named on the sheet, taken as recombinant human CD38-his from Example 9; row printed 'BZ1 Pool2 PA', assigned to BZ1S through legends paragraph 161 and paragraph 163.
Method: Kinetic interactions between bispecific antibodies and CD38 antigen were measured at 25° C. using Biacore T200 surface plasmon resonance (GE Healthcare). Anti-human fragment crystallizable (Fc) antibody (Human Antibody Capture Kit) was immobilized on a Series S CM5 sensor chip to approximately 10000 RU using standard N-Hydroxysuccinimide/1-ethyl-3-(-3-dimethylaminopropyl) carbodiimide hydrochloride (NHS/EDC) coupling methodology. Antibodies (bispecific or mAb, approximately 2 μg/mL) were captured for 60 seconds at a flow rate 10 μL/min. Recombinant human CD38-his tag was serially diluted in running buffer (1×HBS-EP+). All measurements were conducted with a flow rate of 30 μL/min. Surfaces were regenerated with 3M MgCl₂ for 60 s. A 1:1 (Langmuir) binding model was used to fit the data.
Biacore binding kinetics of the CD38×CD3 bispecific antibodies towards each individual antigen as the first and sole binding event were obtained for the target combination: CD38/CD3. The bispecific antibody was immobilized onto a biosensor surface via amine coupled anti human Fc antibodies on a CM5 sensor chip (GE Healthcare) according to the manufacturer's recommendation. […] Some kinetics analysis of the parental mAb (anti-CD38) was performed with 200 seconds association phase and 300 seconds dissociation phase.

Where “and” joins values, the source holds several entries; their conditions need not be identical. Identical values can stand only once.

B1: BZ1 heterodimeric antibody (bispecific antibody, human IgG1, lambda, L234A L235A)
chain: QVQLVQSGAEVKKPGASVKVSCKASGYTFISYTMHWVRQAPGQGLEWIGYINPRSGYTHYNQKLKDRATLTADKSASTAYMELSSLRSEDTAVYYCARSAYYDYDGFAYWGQGTLVTVSSGGGGSGGGGSGGGGSGGGGSDIQMTQSPSSLSASVGDRVTITCSASSSVSYMNWYQQKPGKAPKRLIYDTSKLASGVPSRFSGSGSGTDFTLTISSLQPEDFATYYCQQWSSNPPTFGGGTKVEIKGGGGSDKTHTCPPCPAPEAAGGPSVFLFPPKPKDTLMISRTPEVTCVVVDVSHEDPEVKFNWYVDGVEVHNAKTKPREEQYNSTYRVVSVLTVLHQDWLNGKEYKCKVSNKALPAPIEKTISKAKGQPREPQVYTLPPSREEMTKNQVSLSCAVKGFYPSDIAVEWESNGQPENNYKTTPPVLDSDGSFFLVSKLTVDKSRWQQGNVFSCSVMHEALHNHYTQKSLSLSPGK
heavy: QVQLVESGGGLVKPGGSLRLSCAASGFTFSDDYMSWIRQAPGKGLEWVASVSNGRPTTYYADSVRGRFTISRDNAKNSLYLQMNSLRAEDTAVYYCAREGWSGEFTDWGQGTLVTVSSASTKGPSVFPLAPSSKSTSGGTAALGCLVKDYFPEPVTVSWNSGALTSGVHTFPAVLQSSGLYSLSSVVTVPSSSLGTQTYICNVNHKPSNTKVDKRVEPKSCDKTHTCPPCPAPEAAGGPSVFLFPPKPKDTLMISRTPEVTCVVVDVSHEDPEVKFNWYVDGVEVHNAKTKPREEQYNSTYRVVSVLTVLHQDWLNGKEYKCKVSNKALPAPIEKTISKAKGQPREPQVYTLPPSREEMTKNQVSLWCLVKGFYPSDIAVEWESNGQPENNYKTTPPVLDSDGSFFLYSKLTVDKSRWQQGNVFSCSVMHEALHNHYTQKSLSLSPGK
light: not shown
notes: Isotype IgG1/LALA, knob-in-hole; also called BZ1 bispecific antibody
By Kd is commonly meant the constant that tells how readily two partners part at equilibrium. Usually koff stands for the first-order rate constant of dissociation. For orientation: kon means a measure of how fast the partners come together. For the molecule B1, in experiment [1], the Kd is 1.08 nM and 0.96 nM; the koff is 0.00213 s⁻¹ and 0.00205 s⁻¹; the kon was 1.97e+06 M⁻¹ s⁻¹.

B2: BZ1S (bispecific antibody, human IgG1, lambda, L234A L235A)
first polypeptide (anti-CD3 scFv-Fc fusion): QVQLVQSGAEVKKPGASVKVSCKASGYTFISYTMHWVRQAPGQGLEWIGYINPRSGYTHYNQKLKDRATLTADKSASTAYMELSSLRSEDTAVYYCARSAYYDYDGFAYWGQGTLVTVSSGGGGSGGGGSGGGGSGGGGSDIQMTQSPSSLSASVGDRVTITCSASSSVSYMNWYQQKPGKAPKRLIYDTSKLASGVPSRFSGSGSGTDFTLTISSLQPEDFATYYCQQWSSNPPTFGGGTKVEIKGGGGSDKTHTCPPCPAPEAAGGPSVFLFPPKPKDTLMISRTPEVTCVVVDVSHEDPEVKFNWYVDGVEVHNAKTKPREEQYNSTYRVVSVLTVLHQDWLNGKEYKCKVSNKALPAPIEKTISKAKGQPREPQVYTLPPSREEMTKNQVSLSCAVKGFYPSDIAVEWESNGQPENNYKTTPPVLDSDGSFFLVSKLTVDKSRWQQGNVFSCSVMHEALHNHYTQKSLSLSPGK
second polypeptide (anti-CD38 heavy chain): QVQLVESGGGLVKPGGSLRLSCAASGFTFSDDYMSWIRQAPGKGLEWVASVSSGRPTTYYADSVRGRFTISRDNAKNSLYLQMNSLRAEDTAVYYCAREGWSGEFTDWGQGTLVTVSSASTKGPSVFPLAPSSKSTSGGTAALGCLVKDYFPEPVTVSWNSGALTSGVHTFPAVLQSSGLYSLSSVVTVPSSSLGTQTYICNVNHKPSNTKVDKRVEPKSCDKTHTCPPCPAPEAAGGPSVFLFPPKPKDTLMISRTPEVTCVVVDVSHEDPEVKFNWYVDGVEVHNAKTKPREEQYNSTYRVVSVLTVLHQDWLNGKEYKCKVSNKALPAPIEKTISKAKGQPREPQVYTLPPSREEMTKNQVSLWCLVKGFYPSDIAVEWESNGQPENNYKTTPPVLDSDGSFFLYSKLTVDKSRWQQGNVFSCSVMHEALHNHYTQKSLSLSPGK
third polypeptide (anti-CD38 light chain): not shown
notes: also called BZ1S heterodimeric antibody; BZ1S bispecific antibody
Regarding B2, in experiment [2], the Kd came out at 0.909 nM, the koff stood at 0.00194 s⁻¹ and the on-rate (kon) worked out at 2.14e+06 M⁻¹ s⁻¹.
